The record followed here is patent US20100233095A1 (ADLYFE, published 2010).

The target in experiment [1] is T1, Aβ42 Fiber (insoluble Aβ42 target protein fibers) (UniProt P05067 672-713).
T1 construct: domain: Aβ1-42; Insoluble fibrillar aggregate of Aβ42; also called Aβ 1-42 fiber; Aβ42 fibers
The experiment can be described thus: centrifugation of insoluble fibers with soluble probe, SDS-PAGE of the pellet, 40% TFE. The method, then: Aβ42 Fiber (target protein) and peptide probe (SEQ ID NO:1) are incubated for 3 hours in the presence of increasing amounts of trifluoroethanol (TFE). The samples are centrifuged at 17,000×g for 30 minutes, and the pellets are denatured in sample buffer and analyzed by SDS-PAGE. Reference samples (Input) are shown for comparison. In this example, binding of target protein and peptide probe is clearly observed at the 40% TFE condition (compare left and right panels at 40% TFE, where the “peptide” band appears in the left panel but not the right panel).

In experiment [2] the target is T2, biotinylated Aβ 42 oligomer (UniProt P05067 672-713, biotin (site not stated)).
T2 construct: domain: Aβ1-42; Captured on streptavidin-coated magnetic beads; also called biotin-labeled soluble Aβ42 target protein oligomers; synthetic biotinylated oligomer
T2 sequence (P05067 672-713 limits assumed): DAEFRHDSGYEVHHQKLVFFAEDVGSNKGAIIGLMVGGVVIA
The experiment can be described thus: streptavidin bead capture of biotinylated oligomer, SDS-PAGE. The method, then: Labeled peptide probe (SEQ ID NO:1, 2 μM) and biotinylated target protein (Aβ 42 oligomers, 2 μM) are incubated in PBS for 30 minutes. The mixture is then subjected to a capture step using magnetic beads coated with streptavidin. The beads are washed with PBS to remove unbound material and the captured material is analyzed by SDS-PAGE.

For experiment [3], the target named is T3, Aβ42 oligomer (soluble Aβ42 target protein oligomers) (UniProt P05067 672-713).
T3 construct: domain: Aβ1-42; Soluble oligomeric aggregate; also called synthetic Aβ42 oligomer
T3 sequence (P05067 672-713 limits assumed): as above
The experiment can be described thus: G25 size exclusion spin column, fluorescence of the eluant; 2 µM probe, 2 µM oligomer. How it is done: Labeled peptide probe (SEQ ID NO:1, 2 μM) and target protein (Aβ oligomers, 2 μM) are incubated together for 90 minutes in Hepes buffer (10 mM, pH 7.0) and then loaded onto a G25 size exclusion column, which has a 5000 Da molecular weight cutoff. The column is subjected to centrifugation at 735×g for 2 minutes. Eluants and column material are analyzed by a TECAN fluorimeter. This method is illustrated in FIG. 14A. Eluant also may be analyzed by SDS-PAGE (not shown).
Background: Size exclusion chromatography separates by hydrodynamic size, large species first.

The target of experiment [4] is T4, streptavidin (on magnetic dynabeads) (UniProt P22629 37-163, limits assumed).
T4 construct: Capture reagent; also called streptavidin bead; magnetic streptavidin beads
T4 sequence (P22629 37-163 limits assumed): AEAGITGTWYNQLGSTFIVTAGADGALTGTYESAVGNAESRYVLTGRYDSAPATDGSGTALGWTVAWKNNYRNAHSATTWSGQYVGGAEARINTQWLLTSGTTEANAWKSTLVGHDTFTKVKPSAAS
The experiment can be described thus: streptavidin bead pull-down (protocol B) without biotinylated oligomer, SDS-PAGE. How it is done: In an alternative assay with Peptide 22 (protocol B, illustrated in FIG. 5A), […] biotinylated Aβ 42 oligomer was incubated with pre-washed streptavidin dynabeads at room temperature for 30 minutes. The complex was then washed two times with PBS buffer, and resuspended in PBS buffer. Equal volumes of bound oligomer and 4 μM labeled peptide probe (SEQ ID NO:2) were then combined, and incubated for 30 minutes at room temperature. Unbound material was then washed away with three PBS washes, followed by the collection of the bead complexes by magnet. The complex was then resuspended in 1×LDS buffer, boiled for 10 minutes, and loaded on 10% Bis-Tris gels.

The target in experiment [5] is T5, bovine serum albumin (control substrate) (bovine, UniProt P02769 25-607).
T5 construct: also called BSA
T5 sequence (P02769 25-607 limits assumed): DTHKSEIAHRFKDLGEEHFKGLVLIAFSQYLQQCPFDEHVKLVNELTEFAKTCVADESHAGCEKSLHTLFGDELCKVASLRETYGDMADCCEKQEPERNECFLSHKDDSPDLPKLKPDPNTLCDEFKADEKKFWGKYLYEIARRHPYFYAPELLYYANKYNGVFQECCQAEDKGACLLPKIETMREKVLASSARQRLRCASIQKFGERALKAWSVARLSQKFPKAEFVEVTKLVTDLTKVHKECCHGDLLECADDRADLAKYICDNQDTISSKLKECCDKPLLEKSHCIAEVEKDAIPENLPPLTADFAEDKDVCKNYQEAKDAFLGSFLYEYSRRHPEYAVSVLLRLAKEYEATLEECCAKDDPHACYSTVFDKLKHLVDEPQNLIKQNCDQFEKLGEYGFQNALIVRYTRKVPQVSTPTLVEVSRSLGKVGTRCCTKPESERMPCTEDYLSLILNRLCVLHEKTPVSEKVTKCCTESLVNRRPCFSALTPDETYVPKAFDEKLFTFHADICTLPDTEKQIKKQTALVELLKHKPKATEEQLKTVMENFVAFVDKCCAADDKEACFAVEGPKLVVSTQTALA
The experiment can be described thus: pyrene monomer fluorescence of di-pyrene Peptide 22 over time, in water, substrate 0.03-0.3 uM. How it is done:
FIG. 12 illustrates the specificity of Peptide 22 (SEQ ID NO:2) for soluble Aβ oligomers. The first two panels show the dose-dependent increase in pyrene monomer signal when Peptide 22 is incubated with soluble Aβ oligomers prepared by two different methods. The next two panels show no change in fluorescence when Peptide 22 is incubated with Aβ40 monomers and Aβ42 monomers. […] The last two panels show no change in fluorescence when Peptide 22 is incubated with control solutions (BSA or Anhydrase). […] (dotted line=0.3 uM substrate; dashed line=0.1 uM; dashed/dot line=0.03 uM; solid line=p22 alone).
Peptide 22 (100 nM) is incubated in water for 15 hours at room temperature with equimolar concentrations ([…]) of several potential A0 substrates: Aβ42 oligomer (type 1); Aβ42 oligomer (type 2); Aβ 1-42 monomer; Aβ 1-40 monomer; Aβ 1-42 fiber; Aβ 1-40 fiber; bovine serum albumin (control substrate); and carbonic anhydrase (control substrate).

The target of experiment [6] is T3, Aβ42 oligomer (soluble Aβ42 target …). The experiment can be described thus: pyrene fluorescence, aqueous assay; transition from excimer to self-fluorescence.
Experiment [7] has the same target. The experiment can be described thus: pyrene fluorescence of di-pyrene Peptide 45 with 0, 0.03, 0.1 and 0.3 µM Aβ42 oligomer; free peptide 9:1.

pyrene = pyrene (fluorescent label); PBA = not defined here

T1 sequence (P05067 672-713 limits assumed): as the sequence (P05067 672-713 limits assumed) above

B1: peptide probe of SEQ ID NO:1 (WT reference sequence, Aβ protein residues 16-35 with added C-terminal Lys) (peptide)
peptide: {PBA}-KLVFFAEDVGSNKGAIIGLMK(PBA)-NH2
modifications: reading uncertain; also: labels are the default, some assays say only 'labeled', centrifugation assay may use unlabeled peptide
notes: Synthetic probe; also called wildtype
Consider B1, for which the binding result in experiment [1], in experiment [2] and in experiment [3] was “binds” each time.

B2: Peptide 22 (SEQ ID NO:2) (peptide)
peptide: pyrene-KLVFFAEDVGSNKHAIIELMK(pyrene)-NH2
notes: Designed variant of the Aβ 16-35 probe with a salt bridge; also called P22; p22
Consider B2, for which the binding result in experiment [4] is given as “no binding (tested: 4 µM)”; in experiment [5] it was “no binding (tested: 0.3 uM)”.

B3: Peptide 22 variation 2 (SEQ ID NO:15) (peptide)
peptide: pyrene-KLVFFAEDVGSNKKAIIELMK(pyrene)-NH2
notes: also called P22 v.2; Peptide 22 var
As to B3, the binding result in experiment [6] was “binds”.

B4: Peptide 22 variation 1 (SEQ ID NO:14) (peptide)
peptide: pyrene-KLVFFAEDVGSNKRAIIELMK(pyrene)-NH2
notes: also called P22 v.1; Peptide 22 var
In the case of B4, the binding result in experiment [6] is recorded as “binds”.

B5: Peptide 45 (SEQ ID NO:4) (peptide)
peptide: pyrene-KAAAKLVFFAEDVGSNKHAIIELMK-NH2
modifications: not fully specified (residue 25)
notes: also called P45
With B5, the “excimer:monomer fluorescence ratio” value in experiment [7] was 20 ratio (x:1).
